This passage reports percent decrease of LRP1 isolated on proto-heme–human HPX Affi-Gel 15 with 500 nM RAP and Kd results from PMC12690290.

pKd: −log10 of the molar value.

As usually defined, the pKd is −log10 of the Kd, conventionally taken in molar units.

Assay [1] has as its target Low-density lipoprotein receptor 1 (low-density lipoprotein-related protein 1) (human (endogenous in HepG2 and primary human hepatocytes)) (UniProt Q07954). Put plainly: affinity purification with mass spectrometry; as a6, RAP (500 nM) added as competitor to human hepatocyte extract and heme–HPX Affi-Gel 15; amount of receptor isolated.
In assay [2] the target is LRP1 (Homo sapiens) (UniProt Q07954). In words: surface plasmon resonance. Particulars: cited from earlier work.

“RAP (receptor associated protein) added at 500 nM (from UniProt P30533 35-357) (natural protein)” came in with a percent decrease of LRP1 isolated on proto-heme–human HPX Affi-Gel 15 with 500 nM RAP in assay [1] of 50%. As to hemopexin (from UniProt P02790), in assay [2], the negative-log Kd (pKd) was 8.40.
